Reference: paper PMC11229369
Where a chain is given by its changes, count along the chain named. Where two headings read alike, the source gives them in different places.

What was measured:
Cas13h1 = molecular target: T1, Cas13h1 (UniProt PDB:8WCE_1 1-1111); experiment: cryo-EM
T1 sequence: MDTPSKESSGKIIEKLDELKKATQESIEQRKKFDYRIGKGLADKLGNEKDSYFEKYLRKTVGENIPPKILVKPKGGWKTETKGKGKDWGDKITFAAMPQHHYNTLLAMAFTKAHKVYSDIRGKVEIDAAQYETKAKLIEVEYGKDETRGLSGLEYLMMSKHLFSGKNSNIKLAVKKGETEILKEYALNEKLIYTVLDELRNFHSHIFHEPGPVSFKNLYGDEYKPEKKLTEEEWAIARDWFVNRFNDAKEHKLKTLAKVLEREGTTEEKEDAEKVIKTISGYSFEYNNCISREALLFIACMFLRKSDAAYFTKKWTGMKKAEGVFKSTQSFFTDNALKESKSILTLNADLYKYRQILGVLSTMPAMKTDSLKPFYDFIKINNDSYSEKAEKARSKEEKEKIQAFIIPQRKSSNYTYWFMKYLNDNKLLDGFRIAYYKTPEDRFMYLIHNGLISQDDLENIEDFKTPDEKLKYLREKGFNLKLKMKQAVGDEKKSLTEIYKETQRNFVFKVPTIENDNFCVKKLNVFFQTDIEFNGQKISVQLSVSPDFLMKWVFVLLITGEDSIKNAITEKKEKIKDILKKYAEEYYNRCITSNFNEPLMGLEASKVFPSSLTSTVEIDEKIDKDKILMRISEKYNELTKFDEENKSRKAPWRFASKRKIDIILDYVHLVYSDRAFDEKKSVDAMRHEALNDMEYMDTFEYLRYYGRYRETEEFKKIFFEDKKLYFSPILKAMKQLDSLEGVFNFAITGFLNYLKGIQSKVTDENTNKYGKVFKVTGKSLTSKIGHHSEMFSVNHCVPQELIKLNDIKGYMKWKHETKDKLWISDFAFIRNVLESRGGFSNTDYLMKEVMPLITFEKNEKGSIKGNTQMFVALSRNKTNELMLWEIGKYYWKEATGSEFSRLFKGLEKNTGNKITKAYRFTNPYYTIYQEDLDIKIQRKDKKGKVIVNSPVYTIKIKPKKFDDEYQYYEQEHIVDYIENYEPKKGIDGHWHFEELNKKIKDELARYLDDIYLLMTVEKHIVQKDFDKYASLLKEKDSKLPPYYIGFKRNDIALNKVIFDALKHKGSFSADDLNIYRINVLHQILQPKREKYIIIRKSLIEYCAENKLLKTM

[1] = molecular target: T2, Cas13h1 R200A (catalytically dead) (UniProt PDB:8WCE_1 1-1111, R200A); experiment: cryo-EM
T2 sequence: T1 sequence with R200A

Cas13h1 Middle = molecular target: T3, Cas13h1 Middle (UniProt PDB:8WCE_1 340-930); experiment: size exclusion chromatography
T3 sequence: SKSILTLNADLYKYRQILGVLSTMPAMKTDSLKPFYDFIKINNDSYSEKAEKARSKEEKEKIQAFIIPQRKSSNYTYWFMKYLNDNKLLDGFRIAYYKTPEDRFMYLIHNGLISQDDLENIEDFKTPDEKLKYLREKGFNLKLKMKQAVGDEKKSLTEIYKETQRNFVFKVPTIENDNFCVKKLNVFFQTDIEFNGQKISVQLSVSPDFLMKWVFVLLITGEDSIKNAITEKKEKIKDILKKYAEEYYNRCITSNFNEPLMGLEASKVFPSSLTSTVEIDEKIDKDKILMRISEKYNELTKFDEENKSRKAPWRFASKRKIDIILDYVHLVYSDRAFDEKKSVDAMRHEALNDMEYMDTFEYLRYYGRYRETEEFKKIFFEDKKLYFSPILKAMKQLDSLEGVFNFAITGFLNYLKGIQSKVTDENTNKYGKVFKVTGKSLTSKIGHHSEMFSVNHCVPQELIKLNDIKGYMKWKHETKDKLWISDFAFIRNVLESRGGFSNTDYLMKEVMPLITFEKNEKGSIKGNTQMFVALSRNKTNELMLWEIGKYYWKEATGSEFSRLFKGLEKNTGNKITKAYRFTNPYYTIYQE

[2] = molecular target: T2, Cas13h1 R200A (catalytically dead); experiment: cryo-EM; remark: listed apart in the source

B1: crRNA (30-nt guide, 36-nt repeat) (structured_RNA)
RNA: UGCUUCACGUAGGCCUUGGAGCCGUACAUGGUUGUAACAAGCCUAAGUUUGAAAGGUAAAAACAAC
- binding result (Cas13h1): binds

B2: crRNA / target RNA1 (5'-G) (structured_RNA)
RNA 1: B1 RNA
RNA 2: GCAUGUACGGCUCCAAGGCCUACGUGAAGCA
- binding result [1]: binds
- binding result (Cas13h1 Middle): binds

B3: crRNA / target RNA3 (5'-U) (structured_RNA)
RNA 1: B1 RNA
RNA 2: B2 RNA 2 with G1U
- binding result [2]: binds
